The values below come from the supplement of paper PMC10598134.

± gives the standard deviation.

Data set [1] is described as follows: collision cross section of unmodified peptide (TIMS, N2, iRT-aligned); higher = larger / more extended gas-phase ion. As for the experimental part:
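Unmodified synthetic counterpart peptides (ProteomeTools / JPT), analysed by nanoLC-TIMS-QTOF (dda-PASEF). 1/K0 was aligned run-wise to spiked iRT peptides and converted to CCS in N2 (Mason-Schamp). Values are the mean of 1-3 technical replicates for the most abundant feature at each charge state. The same unmodified peptide is repeated across rows and is averaged.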

The nature of data set [2]: collision cross section of modified peptide (TIMS, N2, iRT-aligned); higher = larger / more extended gas-phase ion. Summed up:
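Values are averages of 1–3 technical replicates of the most abundant feature for each charge state. Collision cross section was obtained from the Mason-Schamp equation after 1/K0 calibration with three reference ions and run-wise alignment to the median iRT peptide deviation. Synthetic peptide pools (iRT standard spiked 1:40) were separated on a 120-min nanoflow C18 gradient at 60 °C, analysed on a timsTOF Pro/HT (dda-PASEF, nitrogen, ~2.4 mbar) and identified with MaxQuant.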

The mark [3] stands for this setting: charge state: 2, modification: Nitro (Y).
The mark [4] stands for this setting: charge state: 2, modification: Phospho (Y).
The mark [5] stands for this setting: charge state: 3, modification: Nitro (Y).
[6] abbreviates: charge state: 3, modification: Phospho (Y).

Regarding AAGQPYEQHAK, the values for the collision cross section in data set [1] (charge state: 2) and in data set [1] (charge state: 3) were 373.09 ± 0.48 Å² and 423.62 ± 1.7 Å², respectively.
For the substance AAHGRGALAEAAR, the figures for the collision cross section in data set [1] (charge state: 2) and in data set [1] (charge state: 3) were 390.08 ± 0.35 Å² and 476.13 ± 1.3 Å², respectively.
For the substance AAINQKLIETGER, the collision cross section was 409.65 ± 1.4 Å² in data set [1] (charge state: 2) and 476.29 ± 7.6 Å² in data set [1] (charge state: 3).
AAQASDLEKIHLDEK: the collision cross section worked out at 447.85 ± 1.2 Å² in data set [1] (charge state: 2) and 506 ± 5.5 Å² in data set [1] (charge state: 3).
With AAYQAAIRGVGSAQSR, the results for the collision cross section in data set [1] (charge state: 2) and in data set [1] (charge state: 3) were 436.77 ± 1.2 Å² and 509.17 ± 1.3 Å², respectively.
Turning to AEGYEVAHGGR, the collision cross section in data set [1] (charge state: 2) is 358.34 ± 0.55 Å²; in data set [1] (charge state: 3), 438.28 ± 0.89 Å².
As for AGPNASIISLKSDK, the collision cross section was determined as 408.7 ± 1.4 Å² in data set [1] (charge state: 2) and 483.51 ± 6.7 Å² in data set [1] (charge state: 3).
With AGQKLIDVNHYAK, the collision cross section in data set [1] (charge state: 2) was found to be 420.25 ± 2.7 Å²; in data set [1] (charge state: 3) it was 474.66 ± 4.5 Å².
On to AGRGFSLEELR, for which the collision cross section in data set [1] (charge state: 2) was 376.05 ± 0.67 Å²; in data set [1] (charge state: 3) it was 459.45 ± 3.3 Å².
AIEINPDSAQPYK: the collision cross section in data set [1] (charge state: 2) was 394.83 ± 1.7 Å².
In turn, AIQLNPSYIR displayed a collision cross section in data set [1] (charge state: 2) of 373.91 ± 2.8 Å².
For the substance ALASIDSKLNQAK, the values for the collision cross section in data set [1] (charge state: 2) and in data set [1] (charge state: 3) were 410.25 ± 2 Å² and 481.52 ± 3.4 Å², respectively.
For the substance ALLQAKASGK, the collision cross section in data set [1] (charge state: 2) is listed as 343.27 ± 1.1 Å²; in data set [1] (charge state: 3) it was 435.19 ± 4.7 Å².
As to ALYETELADAR, in data set [1] (charge state: 2), the collision cross section stood at 385.99 ± 0.47 Å².
ANAIGRGAK: the collision cross section in data set [1] (charge state: 2) turned out to be 319.32 ± 2.5 Å².
For ANEKTESSSAQQVAVSR, the collision cross section in data set [1] (charge state: 2) amounted to 440.94 ± 1.7 Å²; in data set [1] (charge state: 3), 497.75 ± 27 Å².
The matching figures for ANLEKAQAELVGTADEATR: 474.85 ± 3.3 Å² and 519.38 ± 2.8 Å².
In turn, APEYLHR registered a collision cross section in data set [1] (charge state: 2) of 313.96 ± 0.73 Å².
On the same count and under the same terms, the same measure for APIISGVTK: 322.45 ± 0.15 Å².
In the case of APPIDRSILPTAPR, the results for the collision cross section in data set [1] (charge state: 2) and in data set [1] (charge state: 3) were 416.59 ± 1.1 Å² and 492.42 ± 3.4 Å², respectively.
Turning to APVGSVVSVPSQSSASSDK, the collision cross section in data set [1] (charge state: 2) is on record as 452.28 ± 0.77 Å².
Regarding AQLSQYFDAVK, the collision cross section in data set [1] (charge state: 2) was determined as 384.48 ± 1.1 Å².
In the case of AQPQDSRGGSK, the collision cross section in data set [1] (charge state: 2) was 349.19 ± 0.54 Å²; in data set [1] (charge state: 3), 421.45 ± 6.4 Å².
AQPSASLGVGYR: the collision cross section in data set [1] (charge state: 2) is on record as 364.53 ± 0.14 Å².
Substance AQSYAQQLGR registered a collision cross section in data set [1] (charge state: 2) of 352.59 ± 0.74 Å².
AQVLAGGRGK displayed a collision cross section in data set [1] (charge state: 2) of 345.66 ± 0.88 Å².
Turning to ASAISIKLGSSK, the figures for the collision cross section in data set [1] (charge state: 2) and in data set [1] (charge state: 3) were 373.11 ± 0.93 Å² and 446.31 ± 5.8 Å², respectively.
In the case of ASCLYGQLPK, the collision cross section in data set [1] (charge state: 2) stood at 363.85 ± 0.6 Å².
As to ASDTSSETVFGKR, the results for the collision cross section in data set [1] (charge state: 2) and in data set [1] (charge state: 3) were 399.16 ± 2.1 Å² and 477.62 ± 3.6 Å², respectively.
For ASEALLKQLK, the collision cross section in data set [1] (charge state: 2) was 367.26 ± 1.1 Å²; in data set [1] (charge state: 3), 459.21 ± 3.1 Å².
The matching figures for ASNAAVKLAESK: 381.6 ± 0.7 Å² and 452.24 ± 3.2 Å².
Substance ASPPLFQSR gave a collision cross section in data set [1] (charge state: 2) of 339.74 ± 0.58 Å².
For the substance ASTPGAAAQIQEVK, the collision cross section in data set [1] (charge state: 2) is recorded as 395.93 ± 0.14 Å².
Same read-out and setting: the same measure for ATAVVDGAFK: 329.06 ± 0.69 Å².
On to ATVASSTQKFQDLGVK, for which the collision cross section was 459.73 ± 1.9 Å² in data set [1] (charge state: 2) and 485.98 ± 5 Å² in data set [1] (charge state: 3).
AVAITQSPSSVR showed a collision cross section in data set [1] (charge state: 2) of 368.2 ± 0.14 Å².
Take AVPSSPAGSAARGR: the results for the collision cross section in data set [1] (charge state: 2) and in data set [1] (charge state: 3) were 380.85 ± 0.71 Å² and 489.36 ± 2 Å², respectively.
AVSILPLLGHGVPRLPPGR returned a collision cross section in data set [1] (charge state: 3) of 563.87 ± 2.3 Å².
Regarding AYDATHLVK, the collision cross section in data set [1] (charge state: 2) is 353.02 ± 0.48 Å²; in data set [1] (charge state: 3) it was 420.22 ± 1.4 Å².
On the same counts, the results for AYGELPEHAK are 366.13 ± 0.54 Å² and 441.2 ± 1.1 Å².
The substance AYILNLVK yielded a collision cross section in data set [1] (charge state: 2) of 331.04 ± 1.1 Å².
Take AYPLADAHLTK: the values for the collision cross section in data set [1] (charge state: 2) and in data set [1] (charge state: 3) were 383.63 ± 0.16 Å² and 452.45 ± 1.1 Å², respectively.
With CQGGQETQEYR, the collision cross section in data set [1] (charge state: 2) is on record as 370.06 ± 0.16 Å².
The same measure, in the same setting: the same measure for CSVLAAANPVYGR: 385.24 ± 0.16 Å²; for CYYGSDTAGR: 353.22 ± 1.1 Å².
For DAEAAEATAEGALKAEK, the collision cross section in data set [1] (charge state: 2) stood at 458.36 ± 2.4 Å²; in data set [1] (charge state: 3), 544.24 ± 2.9 Å².
As to DAIHFYNKSLAEHR, the collision cross section stood at 440.43 ± 2.3 Å² in data set [1] (charge state: 2) and 501.63 ± 3.9 Å² in data set [1] (charge state: 3).
In the case of DASTLQSQKAEGTGDAK, the collision cross section worked out at 442.88 ± 2.3 Å² in data set [1] (charge state: 2) and 495.18 ± 2.5 Å² in data set [1] (charge state: 3).
In the case of DDIIENAPTTHTEEYSGEEK, in data set [1] (charge state: 3), the collision cross section came to 551.19 ± 0.23 Å².
Consider “YSTSGSSGLTTGK [_Y(Nitro (Y))STSGSSGLTTGK_]”, for which the collision cross section in data set [2] (setting [3]) amounted to 371.62 ± 0.55 Å².
In data set [2] (setting [4]), “YSTSGSSGLTTGK [_Y(Phospho (Y))STSGSSGLTTGK_]” had a collision cross section of 375.26 ± 0.063 Å².
For “YTAILNQIPSHSSSIR [_YTAILNQIP(Hydroxyproline)SHSSSIR_]”, the collision cross section in data set [2] (charge state: 2, modification: Hydroxyproline) turned out to be 473.92 ± 0.82 Å²; in data set [2] (charge state: 3, modification: Hydroxyproline) it was 518.79 ± 6.1 Å².
For YTAQVDAEEK [_Y(Nitro (Y))TAQVDAEEK_], the collision cross section in data set [2] (setting [3]) is 358.81 ± 0.55 Å².
As for YTAQVDAEEK [_Y(Phospho (Y))TAQVDAEEK_], in data set [2] (setting [4]), the collision cross section was 361.18 ± 0.78 Å².
YTCSFCGK [_Y(Nitro (Y))TCSFCGK_] displayed a collision cross section in data set [2] (setting [3]) of 334.4 ± 0.71 Å².
Consider YTCSFCGK [_Y(Phospho (Y))TCSFCGK_], for which, in data set [2] (setting [4]), the collision cross section came to 336.46 ± 0.067 Å².
Turning to YTQVGPDHNR [_Y(Nitro (Y))TQVGPDHNR_], the collision cross section came out at 361.98 ± 1.1 Å² in data set [2] (setting [3]) and 411.69 ± 0.22 Å² in data set [2] (setting [5]).
In the case of YTQVGPDHNR [_Y(Phospho (Y))TQVGPDHNR_], the collision cross section amounted to 363.13 ± 0.064 Å² in data set [2] (setting [4]) and 430.78 Å² in data set [2] (setting [6]).
In data set [2] (setting [3]), YTTNNSSEQR [_Y(Nitro (Y))TTNNSSEQR_] returned a collision cross section of 355.01 ± 0.17 Å².
In data set [2] (setting [4]), YTTNNSSEQR [_Y(Phospho (Y))TTNNSSEQR_] gave a collision cross section of 363.91 ± 0.65 Å².
The substance YVGESEANIR [_Y(Nitro (Y))VGESEANIR_] showed a collision cross section in data set [2] (setting [3]) of 357.77 ± 0.55 Å².
With YVGESEANIR [_Y(Phospho (Y))VGESEANIR_], in data set [2] (setting [4]), the collision cross section amounted to 370.09 ± 0.95 Å².
Take YVHADAPTNK [_Y(Nitro (Y))VHADAPTNK_]: the collision cross section in data set [2] (setting [3]) turned out to be 352.73 ± 0.72 Å²; in data set [2] (setting [5]), 417.54 ± 1.2 Å².
As for YVHADAPTNK [_Y(Phospho (Y))VHADAPTNK_], the collision cross section turned out to be 354.72 ± 0.065 Å² in data set [2] (setting [4]) and 420.4 ± 1 Å² in data set [2] (setting [6]).
